Laboratory results: patent US20110262446A1 (published 2011)
Residue numbers refer to the chain shown, from its start.

T1: IGF binding protein BP2 (UniProt P18065 36-325)
T1 construct: also called IGF BP2
T1 sequence (looked up): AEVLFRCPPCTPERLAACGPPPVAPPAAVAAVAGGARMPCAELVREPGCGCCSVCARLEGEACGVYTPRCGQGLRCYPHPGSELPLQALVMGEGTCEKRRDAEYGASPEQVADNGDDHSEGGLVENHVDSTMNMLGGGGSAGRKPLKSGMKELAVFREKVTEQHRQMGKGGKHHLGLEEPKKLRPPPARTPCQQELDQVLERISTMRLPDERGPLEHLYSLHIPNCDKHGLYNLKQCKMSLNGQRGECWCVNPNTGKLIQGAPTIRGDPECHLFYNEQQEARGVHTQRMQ

T2: IGF binding protein BP4 (UniProt P22692 22-258)
T2 construct: also called IGF BP4
T2 sequence (looked up): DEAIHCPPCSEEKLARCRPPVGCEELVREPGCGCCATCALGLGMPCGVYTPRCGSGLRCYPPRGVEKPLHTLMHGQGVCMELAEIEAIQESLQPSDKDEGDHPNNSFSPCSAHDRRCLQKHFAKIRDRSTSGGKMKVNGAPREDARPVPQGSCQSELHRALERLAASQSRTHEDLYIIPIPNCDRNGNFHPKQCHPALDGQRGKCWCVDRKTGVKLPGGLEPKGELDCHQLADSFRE

B1: M0063-F02 Fab (Fab, V domains shown)
VH: EVQLLESGGGLVQPGGSLRLSCAASGFTFSKYEMDWVRQAPGKGLEWVSVISSSGGGTIYADSVKGRFTISRDNSKNTLYLQMNSLRAEDTAMYYCARGRTLYGGAFDIWGQGTMVTVSS
VL: DIQMTQSPSSLSASVGDRVTITCRASQPINTYLNWYQQRPGKAPRILIYTSSTLQSGVPSRFSGSGSGTDFTLTISSVQPEDFATYYCQQSYSFPLTFGGGTKVEIKR
notes: Soluble Fab from phage display; also called M0063-F02(R0032-A01)
B2: M0064-F02 Fab (Fab, V domains shown)
VH: EVQLLESGGGLVQPGGSLRLSCAASGFTFSNYIMWWVRQAPGKGLEWVSVISSSGGMTRYADSVKGRFTISRDNSKNTLYLQMNSLRAEDTAVYYCARDNGDYVGEKGFDIWGQGTMVTVSS
VL: DIQMTQSPSSLSASVGDRVTITCRASQSISNYLNWYQQKPGKAPKLLIYTASTLQSGVPSRFSGSASGTDFTLTINSLQPEDFATYSCQQSYNSPWTFGQGTKVEIKR
notes: Soluble Fab from phage display; also called M0064-F02(R0032-A11); 566A-M0064-F02
B3: M0064-E04 Fab (Fab, V domains shown)
VH: EVQLLESGGGLVQPGGSLRLSCAASGFTFSVYDMNWVRQAPGKGLEWVSSISSSGGGTLYADSVKGRFTISRDNSKNTLYLQMNSLRAEDTAVYYCARDSDTSSYYWYYDLWGRGTLVTVSS
VL: DIQMTQSPSSLSASVGDRVTITCQASHDISNYLNWYQQKPGKAPKLLIYAASRLQSGVPSRFSGGGSGTDFSLTISSLQAEDFATYYCQQSYSFPRTFGQGTNLEIKR
notes: Soluble Fab from phage display; also called M0064-E04(R0032-A03); 566A-M0064-E04
B4: M0072-C06 Fab (Fab, V domains shown)
VH: EVQLLESGGGLVQPGGSLRLSCAASGFTFSAYIMTWVRQAPGKGLEWVSSISPSGGYTVYADSVKGRFTISRDNSKNTLYLQMNSLRAEDTAVYYCARDSGFGDPFDYWGQGTMVTVSS
VL: DIQMTQSPSSLSASVGDRVTITCRASQSIRNYLNWYQQKPGKAPKLLIYAASKLEDGVPSRFSGSGTGTDFTLTIRSLQPEDFASYFCQQSYSSPGITFGPGTKVEIKR
notes: Soluble Fab from phage display; Often printed as M0072-006; also called M0072-006; M0072-C06(R0032-A09)
B5: M0063-F02 IgG (antibody, V domains shown)
VH: B1 VH
VL: DIQMTQSPSSLSASVGDRVTITCRASQPINTYLNWYQQRPGKAPRILIYTSSTLQSGVPSRFSGSGSGTDFTLTISSVQPEDFATYYCQQSYSFPLTFGGGTKVEIK
notes: IgG form of the Fab; Variable domains as printed for the Fab (LV with its leading Q)
B6: M0064-E04 IgG (antibody, V domains shown)
VH: B3 VH
VL: DIQMTQSPSSLSASVGDRVTITCQASHDISNYLNWYQQKPGKAPKLLIYAASRLQSGVPSRFSGGGSGTDFSLTISSLQAEDFATYYCQQSYSFPRTFGQGTNLEIK
notes: IgG form of the Fab; also called non-germlined M0064-E04
B7: M0064-F02 IgG (antibody, V domains shown)
VH: B2 VH
VL: DIQMTQSPSSLSASVGDRVTITCRASQSISNYLNWYQQKPGKAPKLLIYTASTLQSGVPSRFSGSASGTDFTLTINSLQPEDFATYSCQQSYNSPWTFGQGTKVEIK
notes: IgG form of the Fab; also called non-germlined M0064-F02
B8: X0008-A01 (germlined M0064-F02 IgG) (antibody, V domains shown)
VH: B2 VH
VL: B7 VL with A66G, N76S, S87Y
B9: M0080-G03 Fab (Fab, V domains shown)
VH: EVQLLESGGGLVQPGGSLRLSCAASGFTFSFYQMMWVRQAPGKGLEWVSSISPSGGRTYYADSVKGRFTISRDNSKNTLYLQMNSLRAEDTAVYYCAKDIGLGYCSSTSCYTGTPLDYWGQGTLVTVSS
VL: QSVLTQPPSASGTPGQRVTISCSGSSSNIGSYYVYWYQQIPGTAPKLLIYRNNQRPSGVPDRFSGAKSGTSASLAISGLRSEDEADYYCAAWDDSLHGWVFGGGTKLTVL
notes: Anti-IGF-IIE Fab; the constant regions are printed only in part; also called 566A-M0080-G03; 566A-X0004-A02
B10: M0073-C11 Fab (Fab, V domains shown)
VH: EVQLLESGGGLVQPGGSLRLSCAASGFTFSPYDMWWVRQAPGKGLEWVSSISSSGGITAYADSVKGRFTISRDNSKNTLYLQMNSLRAEDTAVYYCARAGYSSSWGYYYYGMDVWGQGTTVTVSS
VL: QSALTQPPSVSVSPGQTASITCSGDRLGDKYASWYQQKPGQSPVLVIYQDTKRPSGIPERFSGSNSGSTATLTISGTQAMDEADYYCQAWDSSTVVFGGGTKLTVL
notes: Anti-IGF-IIE Fab; the constant regions are printed only in part; also called 566A-M0073-C11; 566A-X0003-B02
B11: M0080-G03 IgG (antibody, V domains shown)
VH: B9 VH
VL: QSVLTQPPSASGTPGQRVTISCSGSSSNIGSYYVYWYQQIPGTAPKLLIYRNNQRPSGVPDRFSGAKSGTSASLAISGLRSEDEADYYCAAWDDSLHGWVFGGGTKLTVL
notes: also called 566A-M0080-G03; 566A-X0004-A02
B12: 566A-M0073-C11 IgG (antibody, V domains shown)
VH: B10 VH
VL: B10 VL
notes: also called 566A-X0003-B02

Experiments:
[1] = target: T3, IGF-II (amino acids 1-67) (human, UniProt P01344 25-91); assay: competition SPR (Biacore T100), affinity in solution: Fab pre-incubated with ligand, free ligand read on immobilized huIR-A ECD; measurement #1; head prints 'KD nM'
T3 construct: mature; also called IGF-II (67aa); IGF2
Procedure: (§1) Competition SPR (BIACORE®) was performed under conditions of partially mass-transport limited conditions according to previously described methodology (Nieba et al., 1996). Approximately 16,700 relative response units (RU) of huIR-A (-exon11) ectodomain was coupled by standard amine chemistry to a BIACORE® CM5 chip sensor. Uncoated flow-cell surface was used as a reference. […] Regeneration of the surface was achieved by injection of 30 ul NaCltrate/NaCl pH 4.5. […] These Req estimates were subsequently plotted against total concentrations of Fab used and the resulting inhibition curve was utilised to calculate dissociation constant (KD).

[2] = target: T3, IGF-II (amino acids 1-67); assay: competition SPR (Biacore T100), affinity in solution: Fab pre-incubated with ligand, free ligand read on immobilized huIR-A ECD; measurement #2; head prints 'KD nM'
Procedure: as §1

[3] = target: T3, IGF-II (amino acids 1-67); assay: cell-based or functional assay
[4] = target: T3, IGF-II (amino acids 1-67); assay: SPR (Flexchip), Fab, first of duplicate; unit inferred
[5] = target: T3, IGF-II (amino acids 1-67); assay: SPR (Flexchip), Fab, second of duplicate; unit inferred
IGF-I = IGF-I (UniProt P05019 49-118); assay: cell-based or functional assay
[6] = target: T3, IGF-II (amino acids 1-67); assay: SPR (Biacore T100): IgG captured on Protein G', ligand bound, then BP injected; competitor BP4
Procedure: (§2) BIACORE® T100 and a CM5 chip coated with Protein G were utilised to set up following assay. Approximately 1000 RU of Protein G′ was immobilized on a CM5 chip using standard amine chemistry immobilization method. Entire assay consisted of three sequential injection of following four reagents 1) Candidate IgG was injected onto Protein G′ at 10 ug/ml at 5 ul/min for 180 sec.

[7] = target: T3, IGF-II (amino acids 1-67); assay: SPR (Biacore T100): IgG captured on Protein G', ligand bound, then BP injected; competitor BP2
Procedure: as §2

[8] = target: T3, IGF-II (amino acids 1-67); assay: cell-based or functional assay; remark: listed apart in the source
IGF binding protein BP2 = target: T1, IGF binding protein BP2; assay: SPR (Biacore T100): control with no IGF-II injected before the BP
Procedure: as §2

IGF binding protein BP4 = target: T2, IGF binding protein BP4; assay: as above
Procedure: as §2

[9] = target: T3, IGF-II (amino acids 1-67); assay: SPR (Biacore), non-germlined IgG
[10] = target: T3, IGF-II (amino acids 1-67); assay: SPR (Biacore), germlined IgG
[11] = target: T3, IGF-II (amino acids 1-67); assay: competition SPR (Biacore T100) on immobilized huIR-A ECD, measurement #1
Procedure: as §1

[12] = target: T3, IGF-II (amino acids 1-67); assay: SPR (Biacore T100): IgG captured on Protein G', IGF-II injected
Procedure: as §2

IGF-I, sequence (P05019 49-118 limits assumed): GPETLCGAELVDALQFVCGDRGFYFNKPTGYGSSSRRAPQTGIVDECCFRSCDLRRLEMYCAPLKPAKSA
T3 sequence (P01344 25-91): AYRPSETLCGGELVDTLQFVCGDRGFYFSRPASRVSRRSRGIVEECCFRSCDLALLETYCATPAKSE

Binder	Kd [1] [nM]	Kd [2] [nM]	IC50, IGF-II stimulated BA/F3 cell proliferation (MTS) [3] [µg/mL]	Kd [4] [nM]	Kd [5] [nM]	decrease in IGF-I stimulated cell proliferation, sFab at 50 µg/ml (IGF-I) [%]	other results
B1	1.17	0.858	5.56	0.77	1.6	~30	
B2	1.03	0.503	0.68	0.45	1.2	~30	
B3	0.608	1.11	3.04	0.12	0.25	~30	
B4	1.64	2.52	5.12	5.2	0.7	~30	
B5							competition score (0 = does not compete significantly, 5 = competes strongly) [6]: 0 score 0-5; competition score (0 = does not compete significantly, 5 = competes strongly) [7]: 1 score 0-5; IC50, IGF-II stimulated BaF3 cell proliferation (Guava ViaCount) [8]: 2 nM; IC50, IGF-II stimulated BaF3 cell proliferation (Guava ViaCount), second study [8]: ~7 nM
B6							binding result (IGF binding protein BP2): no binding (tested: 50 nM); binding result (IGF binding protein BP4): no binding (tested: 50 nM); competition score (0 = does not compete significantly, 5 = competes strongly) [6]: 5 score 0-5; competition score (0 = does not compete significantly, 5 = competes strongly) [7]: 5 score 0-5; Kd [9]: 0.52 nM; IC50, IGF-II stimulated BaF3 cell proliferation (Guava ViaCount) [8]: ~19 nM
B7							competition score (0 = does not compete significantly, 5 = competes strongly) [6]: 4 score 0-5; competition score (0 = does not compete significantly, 5 = competes strongly) [7]: 4 score 0-5; Kd [9]: 0.14 nM
B8							Kd [10]: 0.023 nM
B9							binding result [11]: no binding
B10							binding result [11]: no binding
B11							binding result [12]: no binding (tested: 50 nM)
B12							binding result [12]: no binding (tested: 50 nM)
